One block for each substance: values may come before it.
Experiments:
[1] = target: p97 (melanotransferrin), GPI-anchored, on the cell surface (human) (UniProt P08582); experiment: cell-based or functional assay
[2] = target: p97 (melanotransferrin), GPI-anchored, on the cell surface (human) (UniProt P08582); experiment: FACS, SK-MEL-28 cells, L235 hybridoma supernatant + GAM IgG-FITC
[3] = target: p97 (melanotransferrin), GPI-anchored, on the cell surface (human) (UniProt P08582); experiment: FACS, SK-MEL-28 cells pre-incubated with PI-PLC (removes p97), L235 + GAM IgG-FITC
[4] = target: p97 (melanotransferrin), GPI-anchored, on the cell surface (human) (UniProt P08582); experiment: FACS, Sf9 cells infected with p97 recombinant virus p97 B-1-1, L235 + GAM IgG-FITC
[5] = target: p97 (melanotransferrin), GPI-anchored, on the cell surface (human) (UniProt P08582); experiment: FACS, Sf9 cells infected with p97 recombinant virus p97 B-2-1, L235 + GAM IgG-FITC
[6] = target: p97 (melanotransferrin), GPI-anchored, on the cell surface (human) (UniProt P08582); experiment: FACS, SK-MEL-28 cells after PI-PLC treatment, staining against untreated stained cells
[7] = target: p97 (melanotransferrin), GPI-anchored, on the cell surface (human) (UniProt P08582); experiment: FACS, p97aWTBc3 cells after PI-PLC treatment, staining against untreated stained cells
[8] = target: p97 (melanotransferrin), GPI-anchored, on the cell surface (human) (UniProt P08582); experiment: FACS, p97aWTBc7 cells after PI-PLC treatment, staining against untreated stained cells
[9] = target: p97 (melanotransferrin), GPI-anchored, on the cell surface (human) (UniProt P08582); experiment: FACS, Sf9 cells infected with p97 B-1-1, pre-incubated with PI-PLC, L235 + GAM IgG-FITC
[10] = target: p97 (melanotransferrin), GPI-anchored, on the cell surface (human) (UniProt P08582); experiment: FACS, Sf9 cells infected with p97 B-2-1, pre-incubated with PI-PLC, L235 + GAM IgG-FITC
[11] = target: p97 (melanotransferrin), GPI-anchored, on the cell surface (human) (UniProt P08582); experiment: FACS, SK-MEL-28 cells after Pronase treatment, staining against untreated stained cells
[12] = target: transferrin added to TRVb and TRVb-1 cells (30 µg/mL, Example 19) (UniProt P02787); experiment: Pandex cell fluorescence, plate 919, untreated TRVb-1 cells + Tf only, stained with L235 (specificity control)
Sequence of UniProt P02787 (P02787 20-698 limits assumed): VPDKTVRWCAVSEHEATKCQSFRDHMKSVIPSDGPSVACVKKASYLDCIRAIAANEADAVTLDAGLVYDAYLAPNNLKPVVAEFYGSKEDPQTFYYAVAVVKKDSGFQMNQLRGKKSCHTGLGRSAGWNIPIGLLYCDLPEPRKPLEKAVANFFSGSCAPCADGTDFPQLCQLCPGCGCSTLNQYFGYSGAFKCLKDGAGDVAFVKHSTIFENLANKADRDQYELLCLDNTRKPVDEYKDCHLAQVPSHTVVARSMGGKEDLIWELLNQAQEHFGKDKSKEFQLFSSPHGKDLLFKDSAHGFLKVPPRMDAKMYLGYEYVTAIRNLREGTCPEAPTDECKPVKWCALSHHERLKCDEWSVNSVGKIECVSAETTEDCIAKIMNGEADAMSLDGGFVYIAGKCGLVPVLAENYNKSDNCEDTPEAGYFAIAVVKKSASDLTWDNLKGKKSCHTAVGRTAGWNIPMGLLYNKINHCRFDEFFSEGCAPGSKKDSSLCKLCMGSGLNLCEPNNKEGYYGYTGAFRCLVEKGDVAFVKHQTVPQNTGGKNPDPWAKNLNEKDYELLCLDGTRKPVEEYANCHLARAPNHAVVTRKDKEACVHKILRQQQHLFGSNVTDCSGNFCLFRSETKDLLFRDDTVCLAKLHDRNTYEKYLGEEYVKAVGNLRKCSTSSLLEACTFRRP

[13] = target: transferrin added to TRVb and TRVb-1 cells (30 µg/mL, Example 19) (UniProt P02787); experiment: Pandex cell fluorescence, plate 919, acid washed TRVb-1 cells + Tf only, stained with L235 (specificity control)
[14] = target: transferrin added to TRVb and TRVb-1 cells (30 µg/mL, Example 19) (UniProt P02787); experiment: Pandex cell fluorescence, plate 925 (unlabelled Abs then GAM FITC), untreated TRVb-1 cells + Tf only, stained with L235 (specificity control)
[15] = target: transferrin added to TRVb and TRVb-1 cells (30 µg/mL, Example 19) (UniProt P02787); experiment: Pandex cell fluorescence, plate 925 (unlabelled Abs then GAM FITC), acid washed TRVb-1 cells + Tf only, stained with L235 (specificity control)
[16] = target: transferrin added to TRVb and TRVb-1 cells (30 µg/mL, Example 19) (UniProt P02787); experiment: Pandex cell fluorescence, plate 922 (FITC Abs pre-incubated with GAM FITC), untreated TRVb-1 cells + Tf only, stained with L235 (specificity control)
[17] = target: transferrin added to TRVb and TRVb-1 cells (30 µg/mL, Example 19) (UniProt P02787); experiment: Pandex cell fluorescence, plate 922 (FITC Abs pre-incubated with GAM FITC), acid washed TRVb-1 cells + Tf only, stained with L235 (specificity control)
[18] = target: human transferrin receptor on cells (human) (UniProt P02786); experiment: Pandex cell fluorescence, plate 911, untreated TRVb-1 cells, OKT9 then GAM FITC
Sequence of UniProt P02786 (P02786 whole entry): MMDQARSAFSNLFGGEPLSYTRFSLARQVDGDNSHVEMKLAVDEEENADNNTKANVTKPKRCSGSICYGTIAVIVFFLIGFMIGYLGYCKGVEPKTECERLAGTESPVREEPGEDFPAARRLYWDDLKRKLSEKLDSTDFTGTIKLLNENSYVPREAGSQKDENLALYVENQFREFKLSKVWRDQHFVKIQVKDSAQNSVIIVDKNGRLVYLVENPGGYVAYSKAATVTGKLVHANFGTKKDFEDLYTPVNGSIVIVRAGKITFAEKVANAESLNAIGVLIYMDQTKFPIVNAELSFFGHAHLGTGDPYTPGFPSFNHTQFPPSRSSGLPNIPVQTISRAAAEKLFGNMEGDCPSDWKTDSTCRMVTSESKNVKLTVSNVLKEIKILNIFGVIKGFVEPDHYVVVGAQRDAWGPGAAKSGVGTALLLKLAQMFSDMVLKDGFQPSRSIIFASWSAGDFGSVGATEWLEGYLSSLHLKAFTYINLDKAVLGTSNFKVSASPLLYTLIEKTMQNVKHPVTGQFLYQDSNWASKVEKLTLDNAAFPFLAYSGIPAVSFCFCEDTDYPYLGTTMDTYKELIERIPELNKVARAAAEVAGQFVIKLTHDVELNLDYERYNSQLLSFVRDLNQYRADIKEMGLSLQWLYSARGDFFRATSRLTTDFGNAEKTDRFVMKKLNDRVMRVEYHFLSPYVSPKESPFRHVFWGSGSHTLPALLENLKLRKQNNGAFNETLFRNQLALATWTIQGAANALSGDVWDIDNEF

[19] = target: human transferrin receptor on cells (human) (UniProt P02786); experiment: Pandex cell fluorescence, plate 919, untreated TRVb-1 cells, OKT9 then GAM FITC
[20] = target: human transferrin receptor on cells (human) (UniProt P02786); experiment: Pandex cell fluorescence, plate 911, acid washed TRVb-1 cells, OKT9 then GAM FITC
[21] = target: human transferrin receptor on cells (human) (UniProt P02786); experiment: Pandex cell fluorescence, plate 919, acid washed TRVb-1 cells, OKT9 then GAM FITC
[22] = target: human transferrin receptor on cells (human) (UniProt P02786); experiment: FACS, SK-MEL-28 cells after PI-PLC treatment, staining against untreated stained cells
[23] = target: human transferrin receptor on cells (human) (UniProt P02786); experiment: FACS, SK-MEL-28 cells after Pronase treatment, staining against untreated stained cells
[24] = target: Thy-1 on EL-4 mouse lymphoma cells (mouse) (UniProt P01831); experiment: FACS, EL-4 cells after PI-PLC treatment, staining against untreated stained cells
Sequence of UniProt P01831 (P01831 20-131): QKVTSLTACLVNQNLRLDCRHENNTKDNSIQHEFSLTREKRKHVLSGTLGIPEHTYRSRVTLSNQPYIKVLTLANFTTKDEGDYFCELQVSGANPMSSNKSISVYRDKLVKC

[25] = target: Thy-1 on EL-4 mouse lymphoma cells (mouse) (UniProt P01831); experiment: FACS, EL-4 cells after Pronase treatment, staining against untreated stained cells

Sequence of UniProt P08582 (P08582 20-709): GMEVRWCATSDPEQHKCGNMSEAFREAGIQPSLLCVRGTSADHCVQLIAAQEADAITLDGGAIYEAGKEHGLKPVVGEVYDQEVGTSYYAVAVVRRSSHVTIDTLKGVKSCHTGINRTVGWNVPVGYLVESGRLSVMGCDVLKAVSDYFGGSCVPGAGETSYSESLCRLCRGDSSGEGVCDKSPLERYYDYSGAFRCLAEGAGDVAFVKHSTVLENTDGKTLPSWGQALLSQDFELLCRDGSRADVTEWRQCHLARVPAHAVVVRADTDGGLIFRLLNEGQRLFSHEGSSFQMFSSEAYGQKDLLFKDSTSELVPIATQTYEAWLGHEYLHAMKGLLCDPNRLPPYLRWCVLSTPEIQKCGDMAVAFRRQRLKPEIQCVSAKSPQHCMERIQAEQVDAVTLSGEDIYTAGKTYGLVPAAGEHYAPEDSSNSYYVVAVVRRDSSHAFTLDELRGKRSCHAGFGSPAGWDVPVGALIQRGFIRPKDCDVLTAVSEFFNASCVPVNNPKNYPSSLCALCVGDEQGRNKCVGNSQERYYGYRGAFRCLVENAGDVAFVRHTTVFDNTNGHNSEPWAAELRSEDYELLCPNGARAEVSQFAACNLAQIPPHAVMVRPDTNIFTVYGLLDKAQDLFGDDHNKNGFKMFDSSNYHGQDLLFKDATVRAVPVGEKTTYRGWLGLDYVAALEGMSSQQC

- internalization of Fe from 59Fe-citrate by p97TRVb cells [1]: 31%
- FLUORESCENCE-converted linear value [2]: 128
- FLUORESCENCE-converted linear value [3]: 4.52
- FLUORESCENCE-converted linear value [4]: 112
- FLUORESCENCE-converted linear value [5]: 97.4
- Fluorescene Intensity (% of Control) [6]: 10.8 % of Control
- Fluorescene Intensity (% of Control) [7]: 6.8 % of Control
- Fluorescene Intensity (% of Control) [8]: 7.5 % of Control
- FLUORESCENCE-converted linear value [9]: 5.74
- FLUORESCENCE-converted linear value [10]: 6.85
- Fluorescene Intensity (% of Control) [11]: 82.6 % of Control
- fluorescence [12]: 5330
- fluorescence less control (TRVb) [12]: 0
- fluorescence [13]: 5320
- fluorescence less control (TRVb) [13]: 1120
- fluorescence [14]: 2520
- fluorescence less control (TRVb) [14]: 237
- fluorescence [15]: 2710
- fluorescence less control (TRVb) [15]: 758
- fluorescence [16]: 7440
- fluorescence less control (TRVb) [16]: 0
- fluorescence [17]: 6220
- fluorescence less control (TRVb) [17]: 107
Substance: L235 anti-p97 mouse monoclonal antibody

- fluorescence [18]: 4760
- fluorescence less control [18]: 3250
- fluorescence [19]: 13600
- fluorescence less control [19]: 11500
- fluorescence [20]: 7140
- fluorescence less control [20]: 5060
- fluorescence [21]: 12500
- fluorescence less control [21]: 10400
- Fluorescene Intensity (% of Control) [22]: 120 % of Control
- Fluorescene Intensity (% of Control) [23]: 15.9 % of Control
Substance: OKT9 anti-human transferrin receptor mouse monoclonal antibody

- Fluorescene Intensity (% of Control) [24]: 32.5 % of Control
- Fluorescene Intensity (% of Control) [25]: 136 % of Control
Substance: T24/37.1 MAb (anti-Thy-1) (antibody)
